Legend:
Test in all cases: Octet (BLI) off-rate, antibody captured on AHC sensors
IL-7R (Sino Biological) = molecular target: T1, IL-7R (Sino Biological) (UniProt P16871 21-239)
T1 sequence (looked up): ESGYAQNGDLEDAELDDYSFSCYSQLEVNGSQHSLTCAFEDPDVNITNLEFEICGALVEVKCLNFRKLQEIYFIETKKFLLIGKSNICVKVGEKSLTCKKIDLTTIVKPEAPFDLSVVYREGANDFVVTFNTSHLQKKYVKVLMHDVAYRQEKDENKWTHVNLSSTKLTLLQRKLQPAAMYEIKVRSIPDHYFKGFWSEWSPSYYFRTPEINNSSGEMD
Method: (§1) All off-rate measurements were performed on an Octet Qk384 instrument (ForteBio), in 96-well microplates at 25° C. using anti-human IgG Fc capture (AHC, 18-5005) sensors with a shake speed of 1000 rpm. For off-rate determination, the antibodies/antibody fragments were loaded on the AHC sensors at 5 μg/mL. Following a short baseline in kinetics buffer (0.02% Tween20, 0.1% BSA, 0.05% sodium azide, 1X PBS). Offrate measurements were done for the following: human IL-2Rβ (AcroBiosystems), human IL-2Ry (Sino Biological), cynomolgus IL-2RP (Sino Biological), cynomolgus IL-2Rγ (expressed and purified in house using ExpiCHO expression system followed by Ni-NTA His-tag purification), mouse IL-2Rγ (Sino Biological), mouse IL-2Rβ (Sino Biological), human IL-2Rα (Sino Biological), IL-4R (Sino Biological), IL-7R (Sino Biological), IL-9R (R&D Systems) and IL-21R (Sino Biological). The following antibodies were used as positive controls to verify target binding and reagent quality: anti-human IL-9R (R&D Systems), anti-human IL-21R (R&D Systems), anti-human IL-7R (R&D Systems) and anti-human IL-4Ra (R&D Systems). The loaded sensors were then submerged in wells containing antigen at 100 nM concentration for association step. Dissociation was monitored in kinetics buffer. The capture surfaces were regenerated for 60 s. ForteBio data analysis software was used to fit the data to a 1:1 binding model to extract an association rate and dissociation rate.

IL-4R (Sino Biological) = molecular target: T2, IL-4R (Sino Biological) (UniProt P24394 26-232)
T2 construct: also called IL-4Ra
T2 sequence (looked up): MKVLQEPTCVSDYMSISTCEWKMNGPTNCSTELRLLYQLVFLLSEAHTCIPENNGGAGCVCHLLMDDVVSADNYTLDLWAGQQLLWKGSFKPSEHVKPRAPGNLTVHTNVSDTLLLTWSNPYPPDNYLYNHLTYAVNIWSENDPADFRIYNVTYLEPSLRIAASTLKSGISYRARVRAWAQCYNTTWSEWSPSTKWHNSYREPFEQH
Method: as §1

[1] = molecular target: T3, human IL-2Rα (Sino Biological) (human, UniProt P01589 22-213, limits assumed)
T3 construct: Bought recombinant protein; also called IL2RA; CD25
T3 sequence: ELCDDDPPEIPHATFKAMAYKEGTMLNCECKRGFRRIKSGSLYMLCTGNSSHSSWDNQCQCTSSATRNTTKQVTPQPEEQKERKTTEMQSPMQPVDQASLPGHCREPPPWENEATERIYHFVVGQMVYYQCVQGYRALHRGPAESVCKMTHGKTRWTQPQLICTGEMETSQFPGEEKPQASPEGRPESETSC
Method: as §1

IL-9R (R&D Systems) = molecular target: T4, IL-9R (R&D Systems) (UniProt Q01113 41-270, limits assumed)
T4 sequence (looked up): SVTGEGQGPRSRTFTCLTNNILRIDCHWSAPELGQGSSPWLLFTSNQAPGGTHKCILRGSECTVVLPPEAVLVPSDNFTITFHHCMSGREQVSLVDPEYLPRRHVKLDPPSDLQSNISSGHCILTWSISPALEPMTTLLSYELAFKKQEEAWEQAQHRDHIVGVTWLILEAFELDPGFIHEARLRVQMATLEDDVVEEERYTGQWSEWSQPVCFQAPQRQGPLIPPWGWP
Method: as §1

IL-21R (Sino Biological) = IL-21R (Sino Biological) (UniProt Q9HBE5 20-232)
Method: as §1

Measured: binding result

IL-21R (Sino Biological), sequence (Q9HBE5 20-232 limits assumed): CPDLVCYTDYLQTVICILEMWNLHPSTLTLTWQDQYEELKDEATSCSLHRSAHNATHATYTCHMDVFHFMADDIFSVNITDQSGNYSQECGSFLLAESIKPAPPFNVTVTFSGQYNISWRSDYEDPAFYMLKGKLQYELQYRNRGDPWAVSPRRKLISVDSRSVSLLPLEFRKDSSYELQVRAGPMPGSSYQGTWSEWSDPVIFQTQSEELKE

B1: BsAb-2 (IL2RB_F09G**IL2RG_F16B) (bispecific antibody, human IgG4, V domains shown)
V domain 1: QVQLQESGPGLVKSSETLSLTCTVSGGSISSSDWWSWVRQPPGKGLEWIGEIDHSGSTNYNPSLMSRVTISVDKSKNQFSLKLSSVTAADTAVYFCARGSWELTDAFDIRGQGTLVTVSS
V domain 2: QVQLVESGGGLVKPGGSLRLSCAASGFTFSDYYMSWIRQAPGKGLEWVSYISSSGSTIYYADSVKGRFTISRDNAKNSLYLQMNSLRAEDTAVYYCARGDAVSITGDYRGQGTLVTVSS
notes: Heavy chain-only bispecific on silenced, stabilised human IgG4 Fc, knobs-into-holes, no light chains; not shown: C-terminal His-tag on the knob chain
no binding (tested: antigen at 100 nM): all assays above

B2: BsAb-1 (IL2RB_F09C**IL2RG_F16A) (bispecific antibody, human IgG4, V domains shown)
V domain 1: QVQLQESGPGLVKPSGTLSLTCAVSGGSISSSDWWSWVRQPPGKGLEWIGEIDHSGSTNYNPSLMSRVTISVDKSKNQFSLKLSSVTAADTAVYFCGRGSWELSDAFDIRGQGTLVTVSS
V domain 2: QVQLVESGGGLVKPGGSLRLSCAASGFTFSDYYMSWIRQAPGKGLEWVSSISSSGDTIYYADSVQGRFTLSRDNAENSLFLQMNSLRAEDTAVYYCARGDAVSITGDYRGQGTLVTVSS
notes: as for B1
no binding (tested: antigen at 100 nM): all assays above

B3: BsAb-3 (IL2RB_F09G**IL2RG_F16C) (bispecific antibody, human IgG4, V domains shown)
V domain 1: QVQLQESGPGLVKSSETLSLTCTVSGGSISSSDWWSWVRQPPGKGLEWIGEIDHSGSTNYNPSLMSRVTISVDKSKNQFSLKLSSVTAADTAVYFCARGSWELTDAFDIRGQGTLVTVSS
V domain 2: QVQLVESGGGLVKPGGSLRLSCAASGFTFNDYYMSWIRQAPGKGLEWVSHISSSGSTIYYADSVKGRFTVSRDNANNSLYLQMHSLRAEDTAVYYCARGDAVSITGDYRGQGTLVTVSS
notes: as for B1
no binding (tested: antigen at 100 nM): all assays above

B4: BsAb-5 (IL2RB_F09K**IL2RG_F16B) (bispecific antibody, human IgG4, V domains shown)
V domain 1: QVQLQESSPGLVKPSETLSLTCTVSGGSISSSNWWSWVRQPPGKGLEWIGEISHSGSTNYNPSLKSRVTISVDKSKNQFSLRLSSVTAADTAVYFCGRGSWELTDAFDIRGQGTLVTVSS
V domain 2: QVQLVESGGGLVKPGGSLRLSCAASGFTFSDYYMSWIRQAPGKGLEWVSYISSSGSTIYYADSVKGRFTISRDNAKNSLYLQMNSLRAEDTAVYYCARGDAVSITGDYRGQGTLVTVSS
notes: as for B1
no binding (tested: antigen at 100 nM): all assays above

B5: BsAb-4 (IL2RB_F09G**IL2RG_F18A) (bispecific antibody, human IgG4, V domains shown)
V domain 1: QVQLQESGPGLVKSSETLSLTCTVSGGSISSSDWWSWVRQPPGKGLEWIGEIDHSGSTNYNPSLMSRVTISVDKSKNQFSLKLSSVTAADTAVYFCARGSWELTDAFDIRGQGTLVTVSS
V domain 2: QVQLVESGGDLVKPGGSLRLSCAASGFTFSDYYMSWLRQAPGKELEWVSHISSSGTTTYYADSVEGRFTITRDNAKNSLYLQMNSLRAEDTAVYYCARGAAVAPGFDSRGQGTLVTVSS
notes: as for B1
no binding (tested: antigen at 100 nM): all assays above

B6: BsAb-6 (IL2RB_F18E**IL2RG_F16A) (bispecific antibody, human IgG4, V domains shown)
V domain 1: QVQLVESGGGVVQPGRSLRLSCAASGFTFSSYGMHWVRQAPGKEREWVAVISYDGSNKYYTDSVKGRFTISRDNSKNTLYLEMNSLRAEDTAVYYCARDLDYDVLTGDPVGGFDIWGQGTLVTVSS
V domain 2: QVQLVESGGGLVKPGGSLRLSCAASGFTFSDYYMSWIRQAPGKGLEWVSSISSSGDTIYYADSVQGRFTLSRDNAENSLFLQMNSLRAEDTAVYYCARGDAVSITGDYRGQGTLVTVSS
notes: as for B1
no binding (tested: antigen at 100 nM): all assays above

Source: US20260102487A1 (Amgen, published 2026)
